Results: PMC1409677

Biological target: human alpha-thrombin (Homo sapiens, UniProt P00734;P00734 328-363;364-622)
Test: FRET

B1: APT (thrombin aptamer with 12 nt 5' toehold) (structured_DNA)
DNA: TAAGTTCATCTCGGTTGGTGTGGTTGG
B1: binds.
